# Assay results published in patent publication US20180155451A1 (published 2018).
# T1: FcγRIIb extracellular domain with C-terminal His tag (human, UniProt P31994 43-217)
# T1 construct: extracellular domain; Soluble receptor expressed in FreeStyle293 cells, used as analyte in Biacore; also called FcgRIIb; 2b; not shown: His tag attached to the C terminus
# T1 sequence (looked up): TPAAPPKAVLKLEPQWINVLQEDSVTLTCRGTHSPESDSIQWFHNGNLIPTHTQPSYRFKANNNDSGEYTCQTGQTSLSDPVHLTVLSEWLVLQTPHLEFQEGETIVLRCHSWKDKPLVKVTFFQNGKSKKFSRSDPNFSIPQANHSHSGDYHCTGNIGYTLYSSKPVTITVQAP
# T2: FcγRIIa R (human FcγRIIa, allotype R, Arg at position 131), extracellular domain with C-terminal His tag (human, UniProt P12318 34-217)
# T2 construct: extracellular domain; expressed in FreeStyle293 cells; analyte in Biacore; also called 2aR; FcgRIIa R
# T2 sequence (looked up): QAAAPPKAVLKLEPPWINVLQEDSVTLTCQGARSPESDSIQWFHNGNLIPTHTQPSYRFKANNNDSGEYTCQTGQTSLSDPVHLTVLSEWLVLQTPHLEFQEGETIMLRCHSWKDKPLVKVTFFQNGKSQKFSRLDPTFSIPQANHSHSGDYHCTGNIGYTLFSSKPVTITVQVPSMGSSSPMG
# B1: GpH7-A5/GpH7-B3 variant K334_19Q/GpL16-k0 (heterodimerized antibody, He Ab) (antibody, human IgG1, kappa)
# heavy 1: not shown
# heavy 2: not shown
# light: DIVMTQSPLSLPVTPGEPASISCQASESLVHSNRNTYLHWYLQKPGQSPQLLIYKVSNRFSGVPDRFSGSGSGTDFTLKISRVEAEDVGVYYCSQNTHVPPTFGQGTKVEIERTVAAPSVFIFPPSDEQLKSGTASVVCLLNNFYPREAKVQWKVDNALQSGNSQESVTEQDSKDSTYSLSSTLTLSKADYEKHKVYACEVTHQGLSSPVTKSFNRGEC
# notes: Anti-glypican-3 IgG1 heterodimerized antibody; the alteration stands only in the GpH7-B3 chain; Positions in EU numbering; also called K334Q
# B2: GpH7-A5/GpH7-B3 variant K334_13S/GpL16-k0 (heterodimerized antibody, He Ab) (antibody, human IgG1, kappa)
# heavy 1: not shown
# heavy 2: not shown
# light: B1 light
# notes: Anti-glypican-3 IgG1 heterodimerized antibody; the alteration stands only in the GpH7-B3 chain; Positions in EU numbering; also called K334S
# B3: GpH7-A5/GpH7-B3 variant K334_14T/GpL16-k0 (heterodimerized antibody, He Ab) (antibody, human IgG1, kappa)
# heavy 1: not shown
# heavy 2: not shown
# light: B1 light
# notes: Anti-glypican-3 IgG1 heterodimerized antibody; the alteration stands only in the GpH7-B3 chain; Positions in EU numbering; also called K334T
# B4: GpH7-A5/GpH7-B3 variant I336_10E/GpL16-k0 (heterodimerized antibody, He Ab) (antibody, human IgG1, kappa)
# heavy 1: not shown
# heavy 2: not shown
# light: B1 light
# notes: Anti-glypican-3 IgG1 heterodimerized antibody; the alteration stands only in the GpH7-B3 chain; Positions in EU numbering; also called I336E
# B5: GpH7-A5/GpH7-B3 variant I336_13S/GpL16-k0 (heterodimerized antibody, He Ab) (antibody, human IgG1, kappa)
# heavy 1: not shown
# heavy 2: not shown
# light: B1 light
# notes: Anti-glypican-3 IgG1 heterodimerized antibody; the alteration stands only in the GpH7-B3 chain; Positions in EU numbering; also called I336S
# B6: GpH7-A5/GpH7-B3 variant K334_10E/GpL16-k0 (heterodimerized antibody, He Ab) (antibody, human IgG1, kappa)
# heavy 1: not shown
# heavy 2: not shown
# light: B1 light
# notes: Anti-glypican-3 IgG1 heterodimerized antibody; the alteration stands only in the GpH7-B3 chain (K439E); GpH7-A5 carries D356K/H435R; Positions in EU numbering; also called K334E
# B7: GpH7-A5/GpH7-B3 variant I336_15Y/GpL16-k0 (heterodimerized antibody, He Ab) (antibody, human IgG1, kappa)
# heavy 1: not shown
# heavy 2: not shown
# light: B1 light
# notes: Anti-glypican-3 IgG1 heterodimerized antibody; the alteration stands only in the GpH7-B3 chain; Positions in EU numbering; also called I336Y
# B8: GpH7-A5/GpH7-B3 variant I336_14T/GpL16-k0 (heterodimerized antibody, He Ab) (antibody, human IgG1, kappa)
# heavy 1: not shown
# heavy 2: not shown
# light: B1 light
# notes: Anti-glypican-3 IgG1 heterodimerized antibody; the alteration stands only in the GpH7-B3 chain; Positions in EU numbering; also called I336T
# B9: GpH7-A5/GpH7-B3 variant K334_15Y/GpL16-k0 (heterodimerized antibody, He Ab) (antibody, human IgG1, kappa)
# heavy 1: not shown
# heavy 2: not shown
# light: B1 light
# notes: Anti-glypican-3 IgG1 heterodimerized antibody; the alteration stands only in the GpH7-B3 chain; Positions in EU numbering; also called K334Y
# B10: GpH7-A5/GpH7-B3 variant I336_19Q/GpL16-k0 (heterodimerized antibody, He Ab) (antibody, human IgG1, kappa)
# heavy 1: not shown
# heavy 2: not shown
# light: B1 light
# notes: Anti-glypican-3 IgG1 heterodimerized antibody; the alteration stands only in the GpH7-B3 chain; Positions in EU numbering; also called I336Q
# B11: GpH7-A5/GpH7-B3 variant I336_03V/GpL16-k0 (heterodimerized antibody, He Ab) (antibody, human IgG1, kappa)
# heavy 1: not shown
# heavy 2: not shown
# light: B1 light
# notes: Anti-glypican-3 IgG1 heterodimerized antibody; the alteration stands only in the GpH7-B3 chain; Positions in EU numbering; also called I336V
# B12: GpH7-A5/GpH7-B3 variant S267_19Q/GpL16-k0 (antibody, human IgG1, kappa)
# heavy 1: not shown
# heavy 2: not shown
# light: B1 light
# notes: heterodimerized antibody, mutation in one H chain only; also called He Ab
# B13: GpH7-A5/GpH7-B3 variant S324_06M/GpL16-k0 (antibody, human IgG1, kappa)
# heavy 1: not shown
# heavy 2: not shown
# light: B1 light
# notes: as for B12
# B14: GpH7-A5/GpH7-B3 variant S298_08L/GpL16-k0 (antibody, human IgG1, kappa)
# heavy 1: not shown
# heavy 2: not shown
# light: B1 light
# notes: as for B12
# B15: GpH7-A5/GpH7-B3 variant S324_04F/GpL16-k0 (antibody, human IgG1, kappa)
# heavy 1: not shown
# heavy 2: not shown
# light: B1 light
# notes: as for B12
# B16: GpH7-A5/GpH7-B3 variant S298_06M/GpL16-k0 (antibody, human IgG1, kappa)
# heavy 1: not shown
# heavy 2: not shown
# light: B1 light
# notes: as for B12
# Molecular target: T1, FcγRIIb extracellular domain with …
# Assay: SPR (Biacore), antibody captured via antigen peptide, FcγR as analyte; binding amount relative to control heterodimerized antibody
# Method: (§1) The heterodimerized antibodies He Abs in which one of the H chains was introduced with an alteration were assayed for their binding activities to each activating FcγR and inhibitory FcγR according to the method described in Example 4. […] The activating FcγRs in FIGS. 26, 27, 28, and 29 are FcγRIa, FcγRIIa (R), FcγRIIa (H), and FcγRIIIa, respectively.
# (§2) Analysis of interaction between objective antibody and the FcγR was carried out using Biacore T100 (GE Healthcare). HBS-EP+ (GE Healthcare) was used as the running buffer, and the measurement temperature was set to 25° C. Chips produced by immobilizing the antigen peptide by the amine coupling method to a Series S Sencor Chip CM5 (GE Healthcare), or alternatively, chips produced by allowing preliminarily biotinylated antigen peptides to interact with and immobilize onto a Series S Sensor Chip SA (certified) (GE Healthcare) were used. Antibodies of interest were captured onto an antigen peptide-immobilized chip, and allowed to interact to each FcγR diluted with running buffer. To regenerate and repeatedly use the chip, the antibodies captured on the chip were washed off by reacting 10 mM glycine-HCl, pH 1.5.
row,He/Con_2b (IIb binding),Binder
1,"109 relative binding, GpH7-A5/GpH7-B3/GpL16-k0 = 100",B1
2,"111 relative binding, GpH7-A5/GpH7-B3/GpL16-k0 = 100",B2
3,"115 relative binding, GpH7-A5/GpH7-B3/GpL16-k0 = 100",B3
4,"89.8 relative binding, GpH7-A5/GpH7-B3/GpL16-k0 = 100",B4
5,"83.7 relative binding, GpH7-A5/GpH7-B3/GpL16-k0 = 100",B5
6,"114 relative binding, GpH7-A5/GpH7-B3/GpL16-k0 = 100",B6
7,"68.2 relative binding, GpH7-A5/GpH7-B3/GpL16-k0 = 100",B7
8,"89.5 relative binding, GpH7-A5/GpH7-B3/GpL16-k0 = 100",B8
9,"109 relative binding, GpH7-A5/GpH7-B3/GpL16-k0 = 100",B9
10,"58.2 relative binding, GpH7-A5/GpH7-B3/GpL16-k0 = 100",B10
11,"90.3 relative binding, GpH7-A5/GpH7-B3/GpL16-k0 = 100",B11

# Molecular target: T3, FcγRIIIa extracellular domain with C-terminal His tag (human, UniProt P08637 17-208)
# T3 construct: extracellular domain; Soluble receptor expressed in FreeStyle293 cells, used as analyte in Biacore; also called FcgRIIIa; 3a; not shown: His tag attached to the C terminus
# Assay: as above
# Method: as §1, §2
# T3 sequence (P08637 17-208): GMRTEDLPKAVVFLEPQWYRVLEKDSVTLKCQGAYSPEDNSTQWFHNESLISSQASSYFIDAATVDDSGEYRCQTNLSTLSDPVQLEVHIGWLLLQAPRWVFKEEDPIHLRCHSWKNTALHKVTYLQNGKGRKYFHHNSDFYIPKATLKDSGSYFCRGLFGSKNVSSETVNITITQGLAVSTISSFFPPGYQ
row,He/Con_3a (IIIa binding),Binder
1,"136 relative binding, GpH7-A5/GpH7-B3/GpL16-k0 = 100",B1
2,"145 relative binding, GpH7-A5/GpH7-B3/GpL16-k0 = 100",B2
3,"141 relative binding, GpH7-A5/GpH7-B3/GpL16-k0 = 100",B3
4,"119 relative binding, GpH7-A5/GpH7-B3/GpL16-k0 = 100",B4
5,"102 relative binding, GpH7-A5/GpH7-B3/GpL16-k0 = 100",B5
6,"181 relative binding, GpH7-A5/GpH7-B3/GpL16-k0 = 100",B6
7,"87.3 relative binding, GpH7-A5/GpH7-B3/GpL16-k0 = 100",B7
8,"108 relative binding, GpH7-A5/GpH7-B3/GpL16-k0 = 100",B8
9,"141 relative binding, GpH7-A5/GpH7-B3/GpL16-k0 = 100",B9
10,"92.5 relative binding, GpH7-A5/GpH7-B3/GpL16-k0 = 100",B10
11,"112 relative binding, GpH7-A5/GpH7-B3/GpL16-k0 = 100",B11

# Molecular target: T3, FcγRIIIa extracellular domain with …
# Assay: SPR (Biacore); ratio of He/Con_3a (FcγRIIIa) to He/Con_2b (FcγRIIb)
# How it was run: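 Each FcγR was diluted in HBS-EP+ and injected at 25 °C over antibody held by an antigen-peptide sensor surface. Bound antibody was stripped with 10 mM glycine-HCl, pH 1.5, so chips could be reused.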
row,IIIa/IIb (He_3a/2b),Binder
1,1.25 ratio,B1
2,1.31 ratio,B2
3,1.23 ratio,B3
4,1.33 ratio,B4
5,1.21 ratio,B5
6,1.58 ratio,B6
7,1.28 ratio,B7
8,1.21 ratio,B8
9,1.29 ratio,B9
10,1.59 ratio,B10
11,1.24 ratio,B11

# Molecular target: T2, FcγRIIa R (human FcγRIIa, allotype R, …)
# Assay: SPR (Biacore), relative binding vs GpH7-A5/GpH7-B3/GpL16-k0
row,He/Con_2aR,Binder
1,"135 relative, control = 100",B12
2,"123 relative, control = 100",B13
3,"105 relative, control = 100",B14
4,"104 relative, control = 100",B15
5,"108 relative, control = 100",B16
